Results as given in PMC8184850, “Cryo-EM structure of TFIIH/Rad4–Rad23–Rad33 in damaged DNA opening in nucleotide excision repair” (Nature Communications, 2021).

Columns and labels:
Conditions in all cases: both partners purified
Rad4–Rad23–Rad33 complex = target: T1, Rad4–Rad23–Rad33 complex (yeast, UniProt P14736 1-754; P32628 1-398; Q04231 1-177); test: cross-linking; XL-MS: TFIIH/Rad4–Rad23–Rad33 assembled on −24/+24 AAF-DNA, 1 mg/mL in 20 mM HEPES pH 7.6, 300 mM potassium acetate, 5% glycerol, 5 mM DTT; 6 mM DSBU on ice 2 h; MeroX, FDR <1%
T1 construct: Rad4 (XPC homologue), yeast; Rad23 (RAD23B homologue), yeast; Rad33 (CETN2 homologue), yeast; plasmid pETDuet-RAD33; also called Rad4–23–33; yeast homologue of XPC–RAD23B–CETN2; copies: + +
T1 sequence 1: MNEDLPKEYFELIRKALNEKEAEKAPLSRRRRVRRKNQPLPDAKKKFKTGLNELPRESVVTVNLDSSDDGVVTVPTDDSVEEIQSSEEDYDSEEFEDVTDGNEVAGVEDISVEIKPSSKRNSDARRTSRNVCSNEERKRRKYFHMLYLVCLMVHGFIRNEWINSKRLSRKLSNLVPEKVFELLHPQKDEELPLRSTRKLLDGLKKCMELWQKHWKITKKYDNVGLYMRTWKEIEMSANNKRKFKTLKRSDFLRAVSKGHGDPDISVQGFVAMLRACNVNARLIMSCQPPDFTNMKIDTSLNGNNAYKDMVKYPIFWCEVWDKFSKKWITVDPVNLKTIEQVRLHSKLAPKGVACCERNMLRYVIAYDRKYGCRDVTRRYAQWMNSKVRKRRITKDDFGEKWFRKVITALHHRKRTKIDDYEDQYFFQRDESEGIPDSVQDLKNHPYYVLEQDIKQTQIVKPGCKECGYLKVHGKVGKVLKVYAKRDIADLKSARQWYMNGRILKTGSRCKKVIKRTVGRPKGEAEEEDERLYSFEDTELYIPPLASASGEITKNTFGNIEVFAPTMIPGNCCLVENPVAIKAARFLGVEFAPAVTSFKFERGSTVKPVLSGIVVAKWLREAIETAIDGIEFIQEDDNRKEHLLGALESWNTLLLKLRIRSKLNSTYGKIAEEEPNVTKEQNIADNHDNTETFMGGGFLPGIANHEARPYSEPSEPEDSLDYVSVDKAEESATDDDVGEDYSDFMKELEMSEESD
T1 sequence 2: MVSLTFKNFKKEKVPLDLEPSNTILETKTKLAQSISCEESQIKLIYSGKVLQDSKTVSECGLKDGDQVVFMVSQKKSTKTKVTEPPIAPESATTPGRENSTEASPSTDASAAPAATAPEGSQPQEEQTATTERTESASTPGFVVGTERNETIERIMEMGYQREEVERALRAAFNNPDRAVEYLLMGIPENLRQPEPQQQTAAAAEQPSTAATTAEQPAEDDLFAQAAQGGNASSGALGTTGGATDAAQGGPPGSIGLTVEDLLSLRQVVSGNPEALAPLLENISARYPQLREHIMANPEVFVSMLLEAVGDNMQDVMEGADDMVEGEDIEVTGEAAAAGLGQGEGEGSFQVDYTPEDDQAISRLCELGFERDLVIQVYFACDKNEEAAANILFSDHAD
T1 sequence 3: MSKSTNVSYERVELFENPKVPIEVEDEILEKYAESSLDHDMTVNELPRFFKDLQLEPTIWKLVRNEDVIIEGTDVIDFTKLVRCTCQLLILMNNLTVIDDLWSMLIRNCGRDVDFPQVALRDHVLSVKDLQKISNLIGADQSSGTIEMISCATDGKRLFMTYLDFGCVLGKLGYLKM

Rad3 = target: T2, Rad3 (yeast, UniProt P06839 1-778); test: cryo-EM structure; coreTFIIH and Rad4–Rad23–Rad33 on −24*/+24 AAF-DNA with ATP, glycerol gradient with glutaraldehyde; Map 1 3.86 Å (TFIIH), Map 2 9.2 Å, Map 3 7.9 Å; Rad4, Rad33 and the Tfb1 PH domain placed by rigid-body docking of known structures or homology models
T2 construct: Rad3 (XPD homologue), subunit of yeast coreTFIIH; Stood in the assays as part of coreTFIIH; also called yeast homologue of XPD; source: purified from yeast as a subunit of coreTFIIH
T2 sequence (looked up): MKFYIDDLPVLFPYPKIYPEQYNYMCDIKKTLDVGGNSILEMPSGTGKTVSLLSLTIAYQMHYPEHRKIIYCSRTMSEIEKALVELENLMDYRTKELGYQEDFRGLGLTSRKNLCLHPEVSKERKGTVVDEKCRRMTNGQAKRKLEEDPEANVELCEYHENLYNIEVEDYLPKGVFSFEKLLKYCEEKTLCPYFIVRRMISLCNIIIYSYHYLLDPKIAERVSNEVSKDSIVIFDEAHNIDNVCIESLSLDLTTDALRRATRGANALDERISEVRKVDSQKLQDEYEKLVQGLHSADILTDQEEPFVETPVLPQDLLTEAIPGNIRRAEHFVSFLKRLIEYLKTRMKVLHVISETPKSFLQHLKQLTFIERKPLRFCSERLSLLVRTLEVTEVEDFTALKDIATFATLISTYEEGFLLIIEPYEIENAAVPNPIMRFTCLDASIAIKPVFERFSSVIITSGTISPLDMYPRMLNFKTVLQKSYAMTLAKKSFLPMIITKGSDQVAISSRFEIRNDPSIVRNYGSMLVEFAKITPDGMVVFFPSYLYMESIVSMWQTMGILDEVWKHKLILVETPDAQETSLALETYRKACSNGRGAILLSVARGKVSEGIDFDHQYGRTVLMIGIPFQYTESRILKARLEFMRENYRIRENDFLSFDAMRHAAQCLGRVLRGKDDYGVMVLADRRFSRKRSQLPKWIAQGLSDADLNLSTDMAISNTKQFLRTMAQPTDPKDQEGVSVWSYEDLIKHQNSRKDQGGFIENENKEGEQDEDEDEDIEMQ

Rad4 = target: T3, Rad4 (yeast, UniProt P14736 1-754); test: as above
T3 construct: Rad4 (XPC homologue), yeast; Stood in the assays as part of Rad4–Rad23–Rad33; written alone for the contacts of the subunit; also called yeast homologue of XPC; source: Hi5 insect cells, co-expressed with Rad23, purified as the Rad4–Rad23 complex
T3 sequence (looked up): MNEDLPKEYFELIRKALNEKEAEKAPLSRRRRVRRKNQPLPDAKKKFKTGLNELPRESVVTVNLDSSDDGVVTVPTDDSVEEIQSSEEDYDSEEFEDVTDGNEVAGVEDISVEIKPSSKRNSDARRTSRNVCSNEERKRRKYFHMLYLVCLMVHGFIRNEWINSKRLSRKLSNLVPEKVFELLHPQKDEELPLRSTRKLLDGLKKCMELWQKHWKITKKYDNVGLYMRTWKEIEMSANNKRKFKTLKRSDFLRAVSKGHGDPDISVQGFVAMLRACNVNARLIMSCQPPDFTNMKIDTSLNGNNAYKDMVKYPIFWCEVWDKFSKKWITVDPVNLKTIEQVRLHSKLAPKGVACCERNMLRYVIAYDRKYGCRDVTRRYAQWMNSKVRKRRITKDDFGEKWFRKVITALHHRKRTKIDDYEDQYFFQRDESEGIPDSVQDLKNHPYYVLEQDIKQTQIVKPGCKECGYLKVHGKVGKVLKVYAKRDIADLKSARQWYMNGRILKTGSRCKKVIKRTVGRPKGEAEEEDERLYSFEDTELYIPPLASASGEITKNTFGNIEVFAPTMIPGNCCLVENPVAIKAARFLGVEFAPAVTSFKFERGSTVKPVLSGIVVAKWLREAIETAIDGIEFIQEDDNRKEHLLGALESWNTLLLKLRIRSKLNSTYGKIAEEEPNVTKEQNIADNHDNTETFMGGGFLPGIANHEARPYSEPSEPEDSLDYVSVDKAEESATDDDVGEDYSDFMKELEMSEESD

Measured: binding result

B1: Tfb1 (natural protein, yeast, UniProt P32776 1-642, looked up)
chain: MSHSGAAIFEKVSGIIAINEDVSPAELTWRSTDGDKVHTVVLSTIDKLQATPASSEKMMLRLIGKVDESKKRKDNEGNEVVPKPQRHMFSFNNRTVMDNIKMTLQQIISRYKDADIYEEKRRREESAQHTETPMSSSSVTAGTPTPHLDTPQLNNGAPLINTAKLDDSLSKEKLLTNLKLQQSLLKGNKVLMKVFQETVINAGLPPSEFWSTRIPLLRAFALSTSQKVGPYNVLSTIKPVASSENKVNVNLSREKILNIFENYPIVKKAYTDNVPKNFKEPEFWARFFSSKLFRKLRGEKIMQNDRGDVIIDRYLTLDQEFDRKDDDMLLHPVKKIIDLDGNIQDDPVVRGNRPDFTMQPGVDINGNSDGTVDILKGMNRLSEKMIMALKNEYSRTNLQNKSNITNDEEDEDNDERNELKIDDLNESYKTNYAIIHLKRNAHEKTTDNDAKSSADSIKNADLKVSNQQMLQQLSLVMDNLINKLDLNQVVPNNEVSNKINKRVITAIKINAKQAKHNNVNSALGSFVDNTSQANELEVKSTLPIDLLESCRMLHTTCCEFLKHFYIHFQSGEQKQASTVKKLYNHLKDCIEKLNELFQDVLNGDGESMSNTCTAYLKPVLNSITLATHKYDEYFNEYNNNSN
notes: Tfb1 (p62 homologue), subunit of yeast coreTFIIH; Stood in the assays as part of coreTFIIH; also called yeast homologue of p62; source: purified from yeast as a subunit of coreTFIIH
binds: all assays above
